Publication PMC3029278

Target: CEACAM1-4L-HA (HA-tagged human CEACAM1) (human) (UniProt P13688)
Sequence of UniProt P13688 (P13688 35-526): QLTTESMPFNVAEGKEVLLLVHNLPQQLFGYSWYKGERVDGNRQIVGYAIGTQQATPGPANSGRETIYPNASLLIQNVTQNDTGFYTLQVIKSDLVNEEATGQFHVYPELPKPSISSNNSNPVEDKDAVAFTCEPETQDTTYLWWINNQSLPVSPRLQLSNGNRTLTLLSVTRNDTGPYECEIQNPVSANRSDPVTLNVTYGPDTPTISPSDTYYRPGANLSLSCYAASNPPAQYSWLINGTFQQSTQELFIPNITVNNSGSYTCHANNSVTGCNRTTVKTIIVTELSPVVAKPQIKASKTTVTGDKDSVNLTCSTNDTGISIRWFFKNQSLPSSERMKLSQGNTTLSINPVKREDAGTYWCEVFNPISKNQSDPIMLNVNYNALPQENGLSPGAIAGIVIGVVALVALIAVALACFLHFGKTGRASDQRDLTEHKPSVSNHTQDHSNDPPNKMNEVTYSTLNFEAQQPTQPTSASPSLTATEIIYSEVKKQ

## Opa52 protein of Neisseria gonorrhoeae strain MS11 (natural protein)
  internalised OpaCEA-positive gonococci in CEACAM1-transfected 293 cells (gentamicin protection assay, 2 h): 210000 cfu/ml
